The record followed here is patent US20260217843A1 (APOGEE THERAPEUTICS, published 2026).

Experiment [1] has as its target T1, Recombinant Human OX40L Protein, His Tag (Acro Cat. IL3-H52H4) (human, UniProt P23510 51-183).
T1 construct: Bought His-tagged protein; also called hOX40L
T1 sequence: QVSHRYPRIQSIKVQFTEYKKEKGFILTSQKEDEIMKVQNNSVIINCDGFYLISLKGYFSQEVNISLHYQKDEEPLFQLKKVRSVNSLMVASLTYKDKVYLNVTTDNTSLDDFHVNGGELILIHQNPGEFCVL
As to the kind of experiment: SPR (Biacore 8K), antibody captured, human OX40L injected, 1:1 fit. As to the method: (§1) Samples were injected in a multi-cycle manner over freshly captured mAb, by regenerating the capture surfaces with injection of glycine pH 1.5 for 30 sec at a flow rate of 30 μL/min. The data was processed and analyzed with Biacore Insight Evaluation Software Version 2.0.15.12933 (GE Healthcare) as follows. […] The responses from the two buffer blank injections were then subtracted from the reference subtracted data (2-1) to yield double-referenced data, which were fit to an 1:1 binding model to determine the apparent association (ka) and dissociation rate constants (kd). Their ratio provided the apparent equilibrium dissociation constant or affinity constant (KD=kd/ka).

The target in experiment [2] is T2, hOX40L added as soluble protein in cell assays (human, UniProt P23510 51-183, limits assumed).
T2 sequence: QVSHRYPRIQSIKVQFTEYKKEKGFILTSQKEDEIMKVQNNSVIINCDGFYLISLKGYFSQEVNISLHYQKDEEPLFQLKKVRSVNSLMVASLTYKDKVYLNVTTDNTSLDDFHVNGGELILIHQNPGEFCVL
As to the kind of experiment: cell-based or functional assay.

Experiment [3] addresses cynomolgus FcRn (cynomolgus, UniProt Q8SPV9 24-297; Q8SPW0 21-119). As to the kind of experiment: SPR (Biacore 8K+), antibody captured by anti-human kappa, cynomolgus FcRn injected, pH 5.8; pH 5.8. As to the method:
(§2) Briefly, a CM5 Series S sensor chip functionalized with anti-human kappa antibody was used to capture antibodies at 5 μg/mL. […] The chip was regenerated with 10 mM glycine pH 1.5 and 10 mM NaOH between runs.

Experiment [4] deals with T3, Recombinant Cynomolgus OX40L Protein, His Tag (SINO BIOLOGICAL, Cat. 11057-C07H) (cynomolgus, UniProt G7NVH7 51-183).
T3 construct: Bought protein
T3 sequence: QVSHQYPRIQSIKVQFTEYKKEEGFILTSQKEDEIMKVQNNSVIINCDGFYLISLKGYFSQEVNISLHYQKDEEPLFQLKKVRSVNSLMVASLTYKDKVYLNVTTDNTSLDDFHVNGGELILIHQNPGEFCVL
As to the kind of experiment: SPR (Biacore 8K), antibody captured, cynomolgus OX40L injected, 1:1 fit. The method, then: as §1
On the technique in general: Surface plasmon resonance follows binding to a sensor surface in real time, without labels.

The target in experiment [5] is T4, C1q.
T4 construct: also called Clq
T4 sequence (P02745 23-245, chain 1 of 3): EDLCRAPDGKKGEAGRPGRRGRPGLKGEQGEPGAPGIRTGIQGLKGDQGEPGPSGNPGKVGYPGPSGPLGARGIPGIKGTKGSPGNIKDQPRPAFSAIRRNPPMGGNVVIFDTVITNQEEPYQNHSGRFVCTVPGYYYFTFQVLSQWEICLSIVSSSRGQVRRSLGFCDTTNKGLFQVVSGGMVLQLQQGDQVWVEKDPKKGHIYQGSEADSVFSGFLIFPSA
T4 sequence (P02746 28-253, chain 2 of 3, further chain): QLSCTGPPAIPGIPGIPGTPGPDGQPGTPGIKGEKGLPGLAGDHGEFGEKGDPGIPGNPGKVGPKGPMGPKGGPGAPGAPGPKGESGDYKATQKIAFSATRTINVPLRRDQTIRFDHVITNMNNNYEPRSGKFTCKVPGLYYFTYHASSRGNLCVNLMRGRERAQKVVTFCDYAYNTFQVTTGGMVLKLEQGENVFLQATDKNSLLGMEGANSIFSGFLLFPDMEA
T4 sequence (P02747 29-245, chain 3 of 3, further chain): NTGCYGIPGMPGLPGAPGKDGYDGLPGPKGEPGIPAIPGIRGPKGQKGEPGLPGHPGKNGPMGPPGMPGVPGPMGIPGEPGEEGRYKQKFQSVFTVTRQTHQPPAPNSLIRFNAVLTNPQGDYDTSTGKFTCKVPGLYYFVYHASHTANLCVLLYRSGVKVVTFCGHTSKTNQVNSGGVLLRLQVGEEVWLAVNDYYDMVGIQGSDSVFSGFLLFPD
The experiment is described as follows: SPR (Biacore 8K+), antibody captured by anti-human IgG Fc, C1q injected at 25 nM, mean response. The method, then: Briefly, a CM5 Series S sensor chip functionalized with anti-human IgG Fc antibody was used to capture antibodies at 5 μg/mL. […] The chip was regenerated with 10 mM glycine pH 1.5 and 10 mM NaOH between runs.

Experiment [6] addresses T5, biotinylated hOX40L (human, UniProt P23510 51-183, limits assumed, biotinylated (sites not given)).
T5 construct: construct not described
T5 sequence: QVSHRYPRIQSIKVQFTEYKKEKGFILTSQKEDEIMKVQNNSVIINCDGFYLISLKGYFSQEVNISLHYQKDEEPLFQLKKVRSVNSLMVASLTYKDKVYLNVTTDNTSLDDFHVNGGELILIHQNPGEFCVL
The experiment is described as follows: blocking ELISA: biotinylated hOX40L preincubated with titrated antibody, added to coated hOX40-Fc, Extravidin-HRP. For orientation: In an ELISA, binding on a coated surface is turned into a signal by an enzyme label.

Experiment [7] has as its target human FcRn (human, UniProt P55899 24-297; P61769 21-119). As to the kind of experiment: SPR (Biacore 8K+), antibody captured by anti-human kappa, human FcRn injected, pH 5.8; pH 5.8. The method, then:
as §2

Experiment [8] has as its target T6, hOX40L on hOX40L-expressing CHO cells (human, UniProt P23510 1-183).
T6 construct: also called cell surface OX40L
T6 sequence: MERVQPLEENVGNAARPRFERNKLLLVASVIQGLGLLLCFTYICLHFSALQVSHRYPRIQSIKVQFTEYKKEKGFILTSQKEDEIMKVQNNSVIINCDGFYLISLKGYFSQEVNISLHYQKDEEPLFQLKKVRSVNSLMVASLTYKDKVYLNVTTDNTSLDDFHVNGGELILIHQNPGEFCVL
The experiment is described as follows: flow cytometry on hOX40L-expressing CHO cells, gMFI, nonlinear regression. As to the method: Nonlinear regression was performed on geometric mean fluorescence intensity (gMFI) values to determine EC50 values (FIG. 1, TABLE 8).

human FcRn, sequence (P55899 24-297 limits assumed, form in doubt, chain 1 of 2): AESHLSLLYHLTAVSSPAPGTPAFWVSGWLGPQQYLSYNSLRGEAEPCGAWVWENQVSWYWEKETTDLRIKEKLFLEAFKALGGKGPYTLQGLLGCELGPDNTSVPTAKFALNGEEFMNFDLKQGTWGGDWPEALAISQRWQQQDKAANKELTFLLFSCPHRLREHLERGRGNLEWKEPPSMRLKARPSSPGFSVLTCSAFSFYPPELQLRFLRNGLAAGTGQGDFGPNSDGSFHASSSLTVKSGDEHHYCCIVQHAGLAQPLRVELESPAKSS
human FcRn, sequence (P61769 21-119 limits assumed, form in doubt, chain 2 of 2): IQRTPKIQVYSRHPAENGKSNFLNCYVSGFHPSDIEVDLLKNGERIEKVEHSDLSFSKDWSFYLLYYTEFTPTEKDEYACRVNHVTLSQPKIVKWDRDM
cynomolgus FcRn, sequence (Q8SPV9 24-297 limits assumed, chain 1 of 2): as the sequence (P55899 24-297 limits assumed, form in doubt, chain 1 of 2) above, with N39D, E44Q, G99S, S189G, S190N, L217M, S269T counted along it
cynomolgus FcRn, sequence (Q8SPW0 21-119 limits assumed, chain 2 of 2): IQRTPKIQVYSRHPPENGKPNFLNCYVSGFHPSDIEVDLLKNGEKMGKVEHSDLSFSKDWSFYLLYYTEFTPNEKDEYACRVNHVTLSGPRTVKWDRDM

B1: anti-hOX40L antibody clone 118 (antibody, human IgG1, kappa, L234A L235A, V domains shown)
VH: EVQVVESGGGLIQPGGSLRISCAASGFPVSSNYMSWVRQAPGKGLDWVSIIYSRDSTHYADSVKGRFTMSRDNSKNTVYLQMNSLRAEDTAVYYCAGTLTYYYGAGSDYWGQGTLVTVSS
VL: DIQMTQSPSSLSASVGDRVTITCRASQGIRNDLGWYQQKPGKAPKRLIYAASSLQSGVPSRFSGSGSGTEFTLTISSLQPEDFATYYCLQHNSYPWSFGQGTKVEIKR
As usually defined, the Kd is a measure of binding affinity in units of concentration. A word on the koff: it is a measure of how fast the partners let go of each other. One may read the kon as a measure of how fast the partners come together. On to B1, for which, in experiment [1], the Kd was 0.182 nM, the koff amounted to 2.82e-05 s⁻¹ and the association rate constant (kon) was 155000 M⁻¹ s⁻¹. For the same molecule, in experiment [2], the “IC50, luminescence (RLU), hOX40 reporter cells with 50 ng/mL hOX40L” value (from here on “IC50, luminescence (RLU)”) amounted to 0.912 nM.

B2: anti-hOX40L antibody clone 328 (antibody, human IgG1, kappa, L234A L235A)
heavy: QVQLQESGPGLVKPSQTLSLTCTVSGGSISSGGYYWSWIRQYPGKGLEWIGHIYYSGSTKYNPSLKSRLTISVDTSKNQFSLKLSSVTAADTAVYYCARDNWGSGWYYMDVWGKGTTVTVSSASTKGPSVFPLAPSSKSTSGGTAALGCLVKDYFPEPVTVSWNSGALTSGVHTFPAVLQSSGLYSLSSVVTVPSSSLGTQTYICNVNHKPSNTKVDKKVEPKSCDKTHTCPPCPAPEAAGGPSVFLFPPKPKDTLYITREPEVTCVVVDVSHEDPEVKFNWYVDGVEVHNAKTKPREEQYNSTYRVVSVLTVLHQDWLNGKEYKCKVSNKALPAPIEKTISKAKGQPREPQVYTLPPSRDELTKNQVSLTCLVKGFYPSDIAVEWESNGQPENNYKTTPPVLDSDGSFFLYSKLTVDKSRWQQGNVFSCSVMHEALHNHYTQKSLSLSPG
light: EIVLTQSPATLSLSPGERATLSCRASQSVSNYFAWYRQKPGQAPRLLIYDASNRATGIPARFSGSGSGTDFTLTISSLEPEDFAVYYCQHRSNWPLTFGGGTKVEIKRTVAAPSVFIFPPSDEQLKSGTASVVCLLNNFYPREAKVQWKVDNALQSGNSQESVTEQDSKDSTYSLSSTLTLSKADYEKHKVYACEVTHQGLSSPVTKSFNRGEC
The IC50 is the concentration at which inhibition is half-maximal. Take B2: the Kd is 116 nM in experiment [3], 0.136 nM in experiment [1], 0.0316 nM in experiment [4] and 137 nM in experiment [7]. Moreover, the koff in experiment [3] worked out at 0.0462 s⁻¹; in experiment [1], 0.000271 s⁻¹; in experiment [4], 0.000152 s⁻¹; in experiment [7] it was 0.046 s⁻¹. In addition, the kon in experiment [3] was determined as 399000 M⁻¹ s⁻¹; in experiment [1] it was 2e+06 M⁻¹ s⁻¹; in experiment [4], 4.8e+06 M⁻¹ s⁻¹; in experiment [7], 336000 M⁻¹ s⁻¹. The “RU at 25 nM C1q” value in experiment [5] stood at 0.2 RU. The molecule further yielded an IC50 in experiment [6] of 5.99 nM. Moreover, in experiment [2], the “IC50, luminescence (RLU)” value is 1.9 nM.

B3: anti-hOX40L antibody clone 130 (antibody, human IgG1, kappa, L234A L235A, V domains shown)
VH: EVQLVESGGGLVKPGGSLRLSCAASGFTFSYAWMSWVRQAPGRGLEWVGRIKSETDGGTTDYAAPVKGRFTISRDHSENTLFLQMNSLKTEDTAVYYCTTGSSWNVYFFDFWGQGTLVTVSS
VL: DIQMTQSPSSLSASVGDSVTITCRASQSISNYLNWYHQKPGKAPKLLIYAAYRLQTGVPSRFSGSGSGTDFTLTISSLQPEDFATYYCQQSYSSPLTFGGGTKVEIKR
For the molecule B3, in experiment [1], the Kd is 0.0873 nM, the koff stood at 1.14e-05 s⁻¹ and the kon came to 131000 M⁻¹ s⁻¹. Besides, it took 13 nM to reach half-maximal inhibition in experiment [6] (IC50).

B4: anti-hOX40L antibody clone 127 (antibody, human IgG1, kappa, L234A L235A, V domains shown)
VH: EVQLVESGGGFVKPGGSLRLSCAASGFTFSNAWMSWVRQAPGKGLEWVGRIKSNSYGGTTDYAAPAIGRFTISRDGSKSTLYLQMNSLKTEDTAVYYCTTDHPKFGFDFWGQGTLVTVSS
VL: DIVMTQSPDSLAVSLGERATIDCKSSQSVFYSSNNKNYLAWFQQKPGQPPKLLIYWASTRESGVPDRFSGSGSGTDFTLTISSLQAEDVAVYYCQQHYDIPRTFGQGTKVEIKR
Take B4: in experiment [1], the Kd amounted to 1.11 nM, the koff is 0.00021 s⁻¹ and the on-rate constant (kon) is 189000 M⁻¹ s⁻¹. Moreover, the “IC50, luminescence (RLU)” value in experiment [2] is 1.72 nM.

B5: positive control based on the sequences of the anti-hOX40L antibody amlitelimab (antibody, IgG4, V domains shown)
VH: EVQLVESGGGLVQPGGSLRLSCAASGFTFSNYAMNWVRQAPGKGLEWVSTISGSGGATRYADSVKGRFTISRDNSRNTVYLQMNSLRVEDTAVFYCTKDRLIMATVRGPYYYGMDVWGQGTTVTVSS
VL: DIQMTQSPSSLSASVGDRVTITCRASQSISSYLNWYQQKPGKAPNLLIYAASSLQSGVPSRFSGSGSETDFTLTISSLQPEDFATYYCQQSHSVSFTFGPGTKVDIK
notes: also called Pos; Ctrl
The EC50 is the concentration giving half of the maximal effect. Higher therefore signals a need for much substance. With B5, in experiment [4], the Kd was 0.0455 nM, the koff was determined as 0.000119 s⁻¹ and the kon worked out at 2.62e+06 M⁻¹ s⁻¹. It took 0.62 nM to reach half-maximal inhibition in experiment [6] (IC50). This molecule showed an EC50 in experiment [8] of 3.49 nM.

B6: anti-hOX40L antibody clone 128 (antibody, human IgG1, kappa, L234A L235A, V domains shown)
VH: EVQLVESGGGLVTPGGSLRISCAASGFTFNNAWMTWVRQAPGKGLEWVGRIKSISYGGTTDSAAPVKGRFTISRDDSENTLYLQMSSLKTEDTAVYYCSTGSVWKYGGSLDFWGQGTLVTVSS
VL: DIQMTQSPSSLSASVGDRVTFTCRASQGISRFLNWYQQKPGKAPKLLIYAASTLQNGVPSRFSGSGSGTDFTLTISSLQPEDFATYFCQQTYSTPLTFGGGTKVEIYR
Take B6: in experiment [1], the Kd was below 0.00893 nM, the koff was below 1e-06 s⁻¹ and the kon is 112000 M⁻¹ s⁻¹. Besides, 7.52 nM corresponded to half-maximal inhibition in experiment [6] (IC50).

B7: anti-hOX40L antibody clone 122 (antibody, human IgG1, kappa, L234A L235A, V domains shown)
VH: EVQLVESGGGLVQPGGSLRLSCAASGFTFSNYWMHWVRQAPGKGLVWVSRINSDGISTRYADSVKGRFTISRDNAKNTLYLQMKSLRAEDTAVYYCVRDFQLELPDYWGQGTLVTVSS
VL: DIQMTQSPSSLSASVGDRVTITCRASQGIRDDLAWYQQKAGKAPKRLIFAASSLQSGVPSRFSGSGSGTEFTLTISGLQPEDFANYYCLQHKSNPFTFGQGTKLEIKR
In the case of B7, in experiment [1], the Kd was below 0.00662 nM, the koff was below 1e-06 s⁻¹ and the kon came out at 151000 M⁻¹ s⁻¹. In addition, the IC50 in experiment [6] was 1.57 nM.
